Assay results from patent publication US20190367612A1 (Daiichi Sankyo, published 2019).

Target: T1, human GPRC5D (human, UniProt Q9NZD1 1-345)
T1 construct: whole, on cells; also called hGPRC5D; G-protein coupled receptor family C group 5 member D
Test: flow cytometry on KHM-1B cells (human GPRC5D), culture supernatant, PE anti-human IgG Fc, rMFI over human IgG isotype control
Procedure: Human multiple myeloma cell line KHM-1B cells expressing GPRC5D were adjusted to a concentration of 2×10⁶ cells/mL with PBS containing 5% FBS, inoculated in an amount of 100 μL/well to a 96-well U-bottomed microplate, and centrifuged to remove a supernatant. The culture supernatant of each humanized anti-GPRC5D antibody obtained in Example 8)-3-1 or Human IgG isotype control antibody (Calbiochem/Merck Millipore Corp.) adjusted to 14 ng/mL to 30 μg/mL was added thereto in an amount of 100 μL/well, and the plate was left standing at 4° C. for 1 hour. The cells were washed twice with PBS containing 5% FBS. Then, R-Phycoerythrin AffiniPure F(ab′)2 Fragment Goat Anti-Human IgG, Fcγ Fragment Specific (Jackson ImmunoResearch Laboratories, Inc.) diluted 100-fold with PBS containing 5% FBS was added thereto in an amount of 100 μL/well, and the plate was left standing at 4° C. for 1 hour. The cells were washed twice with PBS containing 5% FBS and then resuspended in PBS containing 5% FBS, followed by detection using a flow cytometer (FACSCanto™ II; Becton, Dickinson and Company). The data was analyzed using Flowjo (Tree Star, Inc.). The PE fluorescence intensity of the cell fraction was plotted to a histogram, and the mean fluorescence intensity (MFI) was calculated. The MFI value of the control antibody was subtracted from the MFI value of the GPRC5D antibody to calculate a relative value of MFI (rMFI).

T1 sequence (Q9NZD1 whole entry): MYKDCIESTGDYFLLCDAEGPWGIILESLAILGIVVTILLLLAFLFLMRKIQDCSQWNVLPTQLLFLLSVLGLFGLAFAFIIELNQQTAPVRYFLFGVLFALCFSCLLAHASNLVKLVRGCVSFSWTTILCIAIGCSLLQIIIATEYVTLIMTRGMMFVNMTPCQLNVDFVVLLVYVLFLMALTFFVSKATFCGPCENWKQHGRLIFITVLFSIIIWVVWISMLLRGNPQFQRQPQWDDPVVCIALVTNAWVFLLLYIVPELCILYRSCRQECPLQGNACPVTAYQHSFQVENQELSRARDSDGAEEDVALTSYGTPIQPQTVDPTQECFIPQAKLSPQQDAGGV

Binder	binding result
humanized anti-GPRC5D antibody h2B1_H2/L3 (antibody, human IgG1, kappa, V domains shown, Human IgG1 / kappa) VH: QVQLVESGGGLVKPSQTLSLTCTFSGFSLNTYDMGVGWIRQPPGKGLEWIGNIWWDDDKYYNPSLKSRVTISKDTSNNQASLKLSSVTAADTAVYYCARIETVRVSRKGFAHWGQGTLVTVSS VL: DTVMTQSPDSLAVSLGERATINCKASQSVGINVDWYQQKPGQPPKLLIYGASNRHTGVPDRFSGSGFGRDFTLTISSLQAEDVAVYYCLQHGSIPPTFGQGTKVEIKR	binds
humanized anti-GPRC5D antibody h2B1_H2/L5 (antibody, human IgG1, kappa, V domains shown, Human IgG1 / kappa) VH: QVQLVESGGGLVKPSQTLSLTCTFSGFSLNTYDMGVGWIRQPPGKGLEWIGNIWWDDDKYYNPSLKSRVTISKDTSNNQASLKLSSVTAADTAVYYCARIETVRVSRKGFAHWGQGTLVTVSS VL: ATRMTQSPSSFSASTGDRVTITCKASQSVGINVDWYQQKPGKSPKLLIYGASNRHTGVPSRFSGSGFGRDFTLTISSLQSEDFATYYCLQHGSIPPTFGGGTKVEIKR	binds
humanized anti-GPRC5D antibody h2B1_H4/L3 (antibody, human IgG1, kappa, V domains shown, Human IgG1 / kappa) VH: QVTLKESGPALVKPTQTLTLTCTFSGFSLNTYDMGVGWIRQPPGKGLEWLANIWWDDDKYYSPSLKSRLTITKDTSNNQAVLTMTNMDPVDTATYYCARIETVRVSRKGFAHWGQGTLVTVSS VL: DTVMTQSPDSLAVSLGERATINCKASQSVGINVDWYQQKPGQPPKLLIYGASNRHTGVPDRFSGSGFGRDFTLTISSLQAEDVAVYYCLQHGSIPPTFGQGTKVEIKR	binds
humanized anti-GPRC5D antibody h2B1_H3/L3 (antibody, human IgG1, kappa, V domains shown, Human IgG1 / kappa) VH: QVQLVESGGGLVKPSQTLSLTCTFSGFSLNTYDMGVGWIRQPPGKGLEWIANIWWDDDKYYNPSLKSRVTISKDTSNNQASLKLSSVTAADTAVYYCARIETVRVSRKGFAHWGQGTLVTVSS VL: DTVMTQSPDSLAVSLGERATINCKASQSVGINVDWYQQKPGQPPKLLIYGASNRHTGVPDRFSGSGFGRDFTLTISSLQAEDVAVYYCLQHGSIPPTFGQGTKVEIKR	binds
humanized anti-GPRC5D antibody h2B1_H2/L2 (antibody, human IgG1, kappa, V domains shown, Human IgG1 / kappa) VH: QVQLVESGGGLVKPSQTLSLTCTFSGFSLNTYDMGVGWIRQPPGKGLEWIGNIWWDDDKYYNPSLKSRVTISKDTSNNQASLKLSSVTAADTAVYYCARIETVRVSRKGFAHWGQGTLVTVSS VL: DTVMTQSPDSLAVSLGERATINCKASQSVGINVDWYQQKPGQPPKLLIYGASNRHTGVPDRFSGSGFGTDFTLTISSLQAEDVAVYYCLQHGSIPPTFGQGTKVEIKR	binds
humanized anti-GPRC5D antibody h2B1_H1/L1 (antibody, human IgG1, kappa, V domains shown, Human IgG1 / kappa) VH: QVQLVESGGGLVKPSQTLSLTCTFSGFSLNTYDMGVGWIRQPPGKGLEWIGNIWWDDDKYYNPSLKSRVTISVDTSKNQASLKLSSVTAADTAVYYCARIETVRVSRKGFAHWGQGTLVTVSS VL: DTVMTQSPDSLAVSLGERATINCKASQSVGINVDWYQQKPGQPPKLLIYGASNRHTGVPDRFSGSGSGRDFTLTISSLQAEDVAVYYCLQHGSIPPTFGQGTKVEIKR	binds
humanized anti-GPRC5D antibody h2B1_H4/L4 (antibody, human IgG1, kappa, V domains shown, Human IgG1 / kappa) VH: QVTLKESGPALVKPTQTLTLTCTFSGFSLNTYDMGVGWIRQPPGKGLEWLANIWWDDDKYYSPSLKSRLTITKDTSNNQAVLTMTNMDPVDTATYYCARIETVRVSRKGFAHWGQGTLVTVSS VL: DTVMTQSPDSLAVSLGERATINCKASQSVGINVDWYQQKPGQSPKLLIYGASNRHTGVPDRFSGSGFGRDFTLTISSLQAEDVAVYYCLQHGSIPPTFGQGTKVEIKR	binds
humanized anti-GPRC5D antibody h2B1_H3/L5 (antibody, human IgG1, kappa, V domains shown, Human IgG1 / kappa) VH: QVQLVESGGGLVKPSQTLSLTCTFSGFSLNTYDMGVGWIRQPPGKGLEWIANIWWDDDKYYNPSLKSRVTISKDTSNNQASLKLSSVTAADTAVYYCARIETVRVSRKGFAHWGQGTLVTVSS VL: ATRMTQSPSSFSASTGDRVTITCKASQSVGINVDWYQQKPGKSPKLLIYGASNRHTGVPSRFSGSGFGRDFTLTISSLQSEDFATYYCLQHGSIPPTFGGGTKVEIKR	binds
humanized anti-GPRC5D antibody h2B1_H4/L1 (antibody, human IgG1, kappa, V domains shown, Human IgG1 / kappa) VH: QVTLKESGPALVKPTQTLTLTCTFSGFSLNTYDMGVGWIRQPPGKGLEWLANIWWDDDKYYSPSLKSRLTITKDTSNNQAVLTMTNMDPVDTATYYCARIETVRVSRKGFAHWGQGTLVTVSS VL: DTVMTQSPDSLAVSLGERATINCKASQSVGINVDWYQQKPGQPPKLLIYGASNRHTGVPDRFSGSGSGRDFTLTISSLQAEDVAVYYCLQHGSIPPTFGQGTKVEIKR	binds
humanized anti-GPRC5D antibody h2B1_H2/L4 (antibody, human IgG1, kappa, V domains shown, Human IgG1 / kappa) VH: QVQLVESGGGLVKPSQTLSLTCTFSGFSLNTYDMGVGWIRQPPGKGLEWIGNIWWDDDKYYNPSLKSRVTISKDTSNNQASLKLSSVTAADTAVYYCARIETVRVSRKGFAHWGQGTLVTVSS VL: DTVMTQSPDSLAVSLGERATINCKASQSVGINVDWYQQKPGQSPKLLIYGASNRHTGVPDRFSGSGFGRDFTLTISSLQAEDVAVYYCLQHGSIPPTFGQGTKVEIKR	binds
humanized anti-GPRC5D antibody h2B1_H3/L4 (antibody, human IgG1, kappa, V domains shown, Human IgG1 / kappa) VH: QVQLVESGGGLVKPSQTLSLTCTFSGFSLNTYDMGVGWIRQPPGKGLEWIANIWWDDDKYYNPSLKSRVTISKDTSNNQASLKLSSVTAADTAVYYCARIETVRVSRKGFAHWGQGTLVTVSS VL: DTVMTQSPDSLAVSLGERATINCKASQSVGINVDWYQQKPGQSPKLLIYGASNRHTGVPDRFSGSGFGRDFTLTISSLQAEDVAVYYCLQHGSIPPTFGQGTKVEIKR	binds
humanized anti-GPRC5D antibody h2B1_H4/L5 (antibody, human IgG1, kappa, V domains shown, Human IgG1 / kappa) VH: QVTLKESGPALVKPTQTLTLTCTFSGFSLNTYDMGVGWIRQPPGKGLEWLANIWWDDDKYYSPSLKSRLTITKDTSNNQAVLTMTNMDPVDTATYYCARIETVRVSRKGFAHWGQGTLVTVSS VL: ATRMTQSPSSFSASTGDRVTITCKASQSVGINVDWYQQKPGKSPKLLIYGASNRHTGVPSRFSGSGFGRDFTLTISSLQSEDFATYYCLQHGSIPPTFGGGTKVEIKR	binds
